Laboratory results: patent EP4660205A1 (Beijing Wisdomab Biotechnology Co., Ltd, dated 2025)
Read-outs that look alike come from different tables or passages of the source.

T1: hIL-1R3-His (extracellular domain of human IL-1R3 with C-terminal His tag) (human (homo sapiens), UniProt Q9NPH3 21-359)
T1 sequence: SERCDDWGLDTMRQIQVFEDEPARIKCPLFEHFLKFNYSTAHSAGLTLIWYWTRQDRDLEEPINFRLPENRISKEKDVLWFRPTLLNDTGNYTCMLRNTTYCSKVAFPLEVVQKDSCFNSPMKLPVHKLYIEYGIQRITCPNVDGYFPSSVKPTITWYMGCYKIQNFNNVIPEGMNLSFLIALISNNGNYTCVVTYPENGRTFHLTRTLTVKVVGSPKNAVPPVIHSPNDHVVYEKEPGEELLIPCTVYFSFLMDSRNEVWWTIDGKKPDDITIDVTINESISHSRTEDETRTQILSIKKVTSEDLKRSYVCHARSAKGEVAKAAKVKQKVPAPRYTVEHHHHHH

T2: human IL-1R3 on the cell surface (HaCAT cells, PBMC/NK cells, MRC-5 cells) (human, UniProt Q9NPH3 21-570)
T2 sequence (looked up): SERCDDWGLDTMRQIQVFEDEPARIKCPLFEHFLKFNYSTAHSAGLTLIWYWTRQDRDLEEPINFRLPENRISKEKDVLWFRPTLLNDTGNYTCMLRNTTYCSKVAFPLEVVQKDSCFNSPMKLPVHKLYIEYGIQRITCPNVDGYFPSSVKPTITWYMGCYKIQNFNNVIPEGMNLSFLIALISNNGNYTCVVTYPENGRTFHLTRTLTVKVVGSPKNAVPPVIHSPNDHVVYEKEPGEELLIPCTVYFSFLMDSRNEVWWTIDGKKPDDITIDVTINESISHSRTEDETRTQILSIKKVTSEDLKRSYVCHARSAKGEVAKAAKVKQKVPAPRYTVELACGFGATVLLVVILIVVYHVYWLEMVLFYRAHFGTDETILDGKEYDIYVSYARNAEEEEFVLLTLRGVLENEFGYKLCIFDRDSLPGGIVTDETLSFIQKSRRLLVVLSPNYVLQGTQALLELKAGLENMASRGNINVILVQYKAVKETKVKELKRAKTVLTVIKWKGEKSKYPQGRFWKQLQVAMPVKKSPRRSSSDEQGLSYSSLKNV

T3: human IL-36R on the cell surface (HEK-Blue IL-36 cells, HaCAT cells, human CD14+ monocytes) (human, UniProt Q9HB29 20-575)
T3 sequence (looked up): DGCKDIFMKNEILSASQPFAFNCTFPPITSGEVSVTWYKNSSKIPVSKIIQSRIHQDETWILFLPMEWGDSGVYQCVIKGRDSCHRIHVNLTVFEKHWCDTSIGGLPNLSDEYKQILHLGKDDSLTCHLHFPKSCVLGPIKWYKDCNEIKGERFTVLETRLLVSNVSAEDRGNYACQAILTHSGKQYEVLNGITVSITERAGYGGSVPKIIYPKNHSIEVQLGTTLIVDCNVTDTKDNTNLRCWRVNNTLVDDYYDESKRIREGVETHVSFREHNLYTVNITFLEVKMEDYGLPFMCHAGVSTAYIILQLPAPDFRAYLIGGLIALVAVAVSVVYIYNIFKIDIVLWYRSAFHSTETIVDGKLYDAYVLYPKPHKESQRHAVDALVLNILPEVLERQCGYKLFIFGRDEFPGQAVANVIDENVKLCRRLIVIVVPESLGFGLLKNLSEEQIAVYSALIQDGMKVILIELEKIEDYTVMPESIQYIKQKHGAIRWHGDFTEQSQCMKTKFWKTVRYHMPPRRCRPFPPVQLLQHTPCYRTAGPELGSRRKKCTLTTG

T4: hIL-36R-His (extracellular domain of human IL-36R with C-terminal His tag) (human (homo sapiens), UniProt Q9HB29 20-335)
T4 construct: also called human hIL-36R-His
T4 sequence: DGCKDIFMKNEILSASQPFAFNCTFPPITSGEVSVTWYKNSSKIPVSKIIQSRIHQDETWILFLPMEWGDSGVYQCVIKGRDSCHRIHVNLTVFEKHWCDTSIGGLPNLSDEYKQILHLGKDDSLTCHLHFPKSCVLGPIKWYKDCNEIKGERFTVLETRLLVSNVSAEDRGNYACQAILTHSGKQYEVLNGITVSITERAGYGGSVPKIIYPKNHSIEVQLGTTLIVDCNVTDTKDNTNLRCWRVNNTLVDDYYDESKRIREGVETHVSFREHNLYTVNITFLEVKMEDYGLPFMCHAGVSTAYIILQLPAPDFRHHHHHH


Assays:
[1] = molecular target: T1, hIL-1R3-His (extracellular domain of …); assay: SPR (Biacore T200), antibody captured by anti-human Fc, hIL-1R3-His as analyte, 1:1 model
[2] = molecular target: T1, hIL-1R3-His (extracellular domain of …); assay: as above; remark: listed apart in the source
[3] = molecular target: T2, human IL-1R3 on the cell surface (HaCAT …); assay: cell-based or functional assay
[4] = molecular target: T1, hIL-1R3-His (extracellular domain of …); assay: SPR (Biacore T200), antibody captured by anti-human Fc, hIL-1R3-His as analyte, 1:1 model; remark: listed apart in the source
[5] = molecular target: T3, human IL-36R on the cell surface …; assay: cell-based or functional assay
[6] = molecular target: T4, hIL-36R-His (extracellular domain of …); assay: SPR (Biacore T200), antibody captured by anti-human Fc, hIL-36R-His as analyte, 1:1 model
[7] = molecular target: T4, hIL-36R-His (extracellular domain of …); assay: as above; remark: listed apart in the source
[8] = molecular target: T3, human IL-36R on the cell surface …; assay: cell-based or functional assay; remark: listed apart in the source
[9] = molecular target: T3, human IL-36R on the cell surface …; assay: cell-based or functional assay; remark: listed apart in the source
[10] = molecular target: T3, human IL-36R on the cell surface …; assay: cell-based or functional assay; remark: listed apart in the source

Binder	Kd [4]	koff [4]	kon [4]	IC50 for inhibiting IL-36α from inducing hIL-8 secretion by HaCAT cells [5]	IC50 for inhibiting IL-36β from inducing hIL-8 secretion by HaCAT cells [5]	IC50 for inhibiting IL-36γ from inducing hIL-8 secretion by HaCAT cells [5]	Kd [6]	koff [6]	kon [6]	Kd [7]	koff [7]	kon [7]	IC50 for inhibiting IL-36α from inducing hIL-8 secretion by HaCAT cells [8]	IC50 for inhibiting IL-36β from inducing hIL-8 secretion by HaCAT cells [8]	IC50 for inhibiting IL-36γ from inducing hIL-8 secretion by HaCAT cells [8]	IC50 for inhibiting IL-36γ-induced hIL-8 secretion by human monocytes [9]	also measured
R1B9VH-h1+R1B9VK-h1 (antibody, V domains shown, also called humanized IL-1R3 antibody; R1B9VH-hl+R1B9VK-h1) VH: EVQLVESGGGLVQPGGSLRLSCAASGFTFSSYAMSWVRQAPGKGLVWVAEISRGGSHTYYPDTVTGRFTISRDNAKNTLYLQMNSLRAEDTAVYYCARSYGNYPFDYWGQGTTVTVSS VL: EIVLTQSPATLSLSPGERATLSCSASSSVSYMYWYQQKPGQAPRLLIYDTSNLASGIPARFSGSGSGTDFTLTISSLEPEDFAVYYCQQWSSYPLTFGQGTKLEIK	1.45 nM	0.000153 s⁻¹	106000 M⁻¹ s⁻¹	–	–	–	–	–	–	–	–	–	–	–	–	–	Kd [1]: 1.45 nM; koff [1]: 0.000153 s⁻¹; kon [1]: 106000 M⁻¹ s⁻¹; Kd [2]: 1.12 nM; koff [2]: 0.000111 s⁻¹; kon [2]: 99200 M⁻¹ s⁻¹; IC50 for inhibiting IL-36α from inducing hIL-8 secretion by HaCAT cells [3]: 0.195 nM; IC50 for inhibiting IL-36β from inducing hIL-8 secretion by HaCAT cells [3]: 0.0961 nM; IC50 for inhibiting IL-36γ from inducing hIL-8 secretion by HaCAT cells [3]: 0.608 nM
R49E11VH-h3+L26B11VK (antibody, V domains shown, Found as a Fab on phage; also called anti-human IL-36R monoclonal antibody; IL-36R monoclonal antibody) VH: QVQLVQSGAEVKKPGASVKVSCKASGYSFTSSWIHWVRQAPGQGLEWMGEINPGSGRSNYNENFQGRVTMTVDTSISTAYMELSRLRSDDTAVYYCTVVFYGEPYFPFWGQGTLVTVSS VL: EIVLTQSPGTLSLSPGERATLSCRASQSVIYSYLAWYQQKPGQAPRLLIYSASKRASGIPDRFSGSGSGTDFTLTISRLEPEDFAVYYCQQHAGIPVTFGQGTKVEIK	–	–	–	0.0559 nM	0.28 nM	1.58 nM	2.9 nM	6.63e-05 s⁻¹	22800 M⁻¹ s⁻¹	1.76 nM	6.83e-05 s⁻¹	38900 M⁻¹ s⁻¹	0.0533 nM	0.276 nM	1.9 nM	0.0677 nM	–
Spesolimab (antibody, V domains shown, Made in house from the variable regions of US9023995B2 as a whole IgG1m3 subtype antibody (control)) VH: QVQLVQSGAEVKKPGASVKVSCKASGYSFTSSWIHWVKQAPGQGLEWMGEINPGNVRTNYNENFRNKVTMTVDTSISTAYMELSRLRSDDTAVYYCTVVFYGEPYFPYWGQGTLVTVSS VL: QIVLTQSPGTLSLSPGERATMTCTASSSVSSSYFHWYQQKPGQAPRLWIYRTSRLASGVPDRFSGSGSGTDFTLTISRLEPEDAATYYCHQFHRSPLTFGAGTKLEIK	–	–	–	0.0939 nM	0.114 nM	0.682 nM	2.56 nM	7.39e-05 s⁻¹	28800 M⁻¹ s⁻¹	–	–	–	0.0433 nM	0.172 nM	0.642 nM	0.0288 nM	–
Crossmab bispecific antibody (R1B9VH-h1+R1B9VK-h1-Fab-cross+R49E11VH-h3+L26B11VK-Fab) (bispecific antibody, human IgG1, kappa, also called IL-36R×IL-1R3 Crossmab bispecific antibody) heavy 1: QVQLVQSGAEVKKPGASVKVSCKASGYSFTSSWIHWVRQAPGQGLEWMGEINPGSGRSNYNENFQGRVTMTVDTSISTAYMELSRLRSDDTAVYYCTVVFYGEPYFPFWGQGTLVTVSSASTKGPSVFPLAPSSKSTSEGTAALGCLVKDYFPEPVTVSWNSGALTSGVHTFPAVLQSSGLYSLSSVVTVPSSSLGTQTYICNVDHKPSNTKVDKTVEPKSCDKTHTCPPCPAPEFEGGPSVFLFPPKPKDTLMISRTPEVTCVVVDVSQEDPEVQFNWYVDGVEVHNAKTKPREEQYNSTYRVVSVLTVLHQDWLNGKEYKCKVSNKALPASIEKTISKAKGQPREPQVCTLPPSQEEMTKNQVSLSCAVKGFYPSDIAVEWESNGQPENNYKTTPPVLDSDGSFFLVSKLTVDKSRWQEGNVFSCSVMHEALHNHYTQKSLSLSPGK light 1: EIVLTQSPGTLSLSPGERATLSCRASQSVIYSYLAWYQQKPGQAPRLLIYSASKRASGIPDRFSGSGSGTDFTLTISRLEPEDFAVYYCQQHAGIPVTFGQGTKVEIKRTVAAPSVFIFPPSDEQLKSGTASVVCLLNNFYPREAKVQWKVDNALQSGNSQESVTEQDSKDSTYSLSSTLTLSKADYEKHKVYACEVTHQGLSSPVTKSFNRGEC heavy 2: EVQLVESGGGLVQPGGSLRLSCAASGFTFSSYAMSWVRQAPGKGLVWVAEISRGGSHTYYPDTVTGRFTISRDNAKNTLYLQMNSLRAEDTAVYYCARSYGNYPFDYWGQGTTVTVSSASVAAPSVFIFPPSDEQLKSGTASVVCLLNNFYPREAKVQWKVDNALQSGNSQESVTEQDSKDSTYSLSSTLTLSKADYEKHKVYACEVTHQGLSSPVTKSFNRGECDKTHTCPPCPAPEFEGGPSVFLFPPKPKDTLMISRTPEVTCVVVDVSHEDPEVKFNWYVDGVEVHNAKTKPREEQYNSTYRVVSVLTVLHQDWLNGKEYKCKVSNKALPASIEKTISKAKGQPREPQVYTLPPCREEMTKNQVSLWCLVKGFYPSDIAVEWESNGQPENNYKTTPPVLDSDGSFFLYSKLTVDKSRWQQGNVFSCSVMHEALHNHYTQKSLSLSPGK light 2: EIVLTQSPATLSLSPGERATLSCSASSSVSYMYWYQQKPGQAPRLLIYDTSNLASGIPARFSGSGSGTDFTLTISSLEPEDFAVYYCQQWSSYPLTFGQGTKLEIKSSASTKGPSVFPLAPSSKSTSGGTAALGCLVKDYFPEPVTVSWNSGALTSGVHTFPAVLQSSGLYSLSSVVTVPSSSLGTQTYICNVNHKPSNTKVDKRVEPKSC	0.761 nM	0.000155 s⁻¹	203000 M⁻¹ s⁻¹	–	–	–	–	–	–	0.669 nM	4.37e-05 s⁻¹	65400 M⁻¹ s⁻¹	0.0183 nM	0.0211 nM	0.0184 nM	–	fold increase of activity by IC50 against R49E11VH-h3+L26B11VK, IL-36α, HaCAT hIL-8 secretion [10]: ~3 fold; fold increase of activity by IC50 against R49E11VH-h3+L26B11VK, IL-36β, HaCAT hIL-8 secretion [10]: ~13 fold; fold increase of activity by IC50 against R49E11VH-h3+L26B11VK, IL-36γ, HaCAT hIL-8 secretion [10]: ~103 fold
